Test results from US20110015122, “[…] B VIRUS-BINDING POLYPEPTIDES AND METHODS OF USE […]” (published 2011).

Columns and labels:
Conditions in all cases: tags: MBP fusion (pMAL); label: 5'-biotin sense strand (SPR)
ZFPc = ZFPc (synthetic); experiment: SPR; HBS-EP, 1:1 with drifting baseline
ZFPf = ZFPf (synthetic); experiment: SPR; HBS-EP, 1:1 Langmuir
ZFPr = ZFPr (synthetic); experiment: SPR; HBS-EP; EMSA na
ZFPe = ZFPe (synthetic); experiment: SPR; HBS-EP; text elsewhere calls ZFPe the picomolar binder
Chain of ZFPe (synthetic) (chain, as listed by the source): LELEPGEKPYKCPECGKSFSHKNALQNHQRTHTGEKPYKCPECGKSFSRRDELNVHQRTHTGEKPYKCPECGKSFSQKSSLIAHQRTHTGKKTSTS

ZFPa = ZFPa (synthetic); experiment: SPR; HBS-EP, 1:1 with drifting baseline
Chain of ZFPa (synthetic) (chain, as listed by the source): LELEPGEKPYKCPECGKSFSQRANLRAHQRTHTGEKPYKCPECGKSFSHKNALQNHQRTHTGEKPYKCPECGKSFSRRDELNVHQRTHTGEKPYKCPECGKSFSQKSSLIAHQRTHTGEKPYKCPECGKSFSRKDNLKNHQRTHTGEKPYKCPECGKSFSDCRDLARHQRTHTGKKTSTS

ZFPb = ZFPb (synthetic); experiment: SPR; HBS-EP, 1:1 with drifting baseline
Chain of ZFPb (synthetic) (chain, as listed by the source): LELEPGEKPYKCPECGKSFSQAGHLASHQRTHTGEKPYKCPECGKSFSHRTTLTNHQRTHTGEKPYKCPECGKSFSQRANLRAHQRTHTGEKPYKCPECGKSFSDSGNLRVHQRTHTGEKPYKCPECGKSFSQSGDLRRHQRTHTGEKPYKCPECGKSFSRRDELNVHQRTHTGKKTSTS

ZFPn = ZFPn (synthetic); experiment: SPR; HBS-EP
Chain of ZFPn (synthetic) (chain, as listed by the source): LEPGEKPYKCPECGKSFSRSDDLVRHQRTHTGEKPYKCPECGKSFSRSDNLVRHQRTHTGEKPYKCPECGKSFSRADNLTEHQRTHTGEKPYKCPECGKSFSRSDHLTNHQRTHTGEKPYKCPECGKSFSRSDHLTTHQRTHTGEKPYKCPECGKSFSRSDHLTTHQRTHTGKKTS

ZFPt = ZFPt (synthetic); experiment: SPR; HBS-EP; EMSA na
Chain of ZFPt (synthetic) (chain, as listed by the source): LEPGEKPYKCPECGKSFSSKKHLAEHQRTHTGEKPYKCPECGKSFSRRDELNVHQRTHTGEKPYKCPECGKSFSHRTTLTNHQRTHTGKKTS

ZFPq = ZFPq (synthetic); experiment: SPR; HBS-EP; EMSA na
Chain of ZFPq (synthetic) (chain, as listed by the source): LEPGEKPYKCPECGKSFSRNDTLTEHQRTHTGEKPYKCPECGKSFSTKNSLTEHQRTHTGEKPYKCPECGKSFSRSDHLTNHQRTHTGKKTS

ZFPu = ZFPu (synthetic); experiment: SPR; HBS-EP; EMSA na
Chain of ZFPu (synthetic) (chain, as listed by the source): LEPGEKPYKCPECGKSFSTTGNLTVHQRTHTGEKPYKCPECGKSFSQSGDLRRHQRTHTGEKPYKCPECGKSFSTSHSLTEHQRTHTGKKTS

ZFPk = ZFPk (synthetic); experiment: SPR; HBS-EP
Chain of ZFPk (synthetic) (chain, as listed by the source): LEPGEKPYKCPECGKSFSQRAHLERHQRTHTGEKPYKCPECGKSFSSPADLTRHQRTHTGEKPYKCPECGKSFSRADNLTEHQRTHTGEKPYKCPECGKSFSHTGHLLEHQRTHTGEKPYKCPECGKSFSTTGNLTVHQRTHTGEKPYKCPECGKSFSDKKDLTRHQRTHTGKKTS

ZFPd = ZFPd (synthetic); experiment: SPR; HBS-EP; text elsewhere calls ZFPe the picomolar binder
Chain of ZFPd (synthetic) (chain, as listed by the source): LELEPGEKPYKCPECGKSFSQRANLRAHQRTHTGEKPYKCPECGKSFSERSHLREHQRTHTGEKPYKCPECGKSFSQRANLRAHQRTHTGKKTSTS

Chain of ZFPr (synthetic) (chain, as listed by the source): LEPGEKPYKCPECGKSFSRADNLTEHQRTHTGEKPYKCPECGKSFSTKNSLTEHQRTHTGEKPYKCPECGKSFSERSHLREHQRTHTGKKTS
Chain of ZFPc (synthetic) (chain, as listed by the source): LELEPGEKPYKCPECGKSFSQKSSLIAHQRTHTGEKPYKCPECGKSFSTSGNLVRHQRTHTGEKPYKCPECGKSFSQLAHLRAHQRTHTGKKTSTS
Chain of ZFPf (synthetic) (chain, as listed by the source): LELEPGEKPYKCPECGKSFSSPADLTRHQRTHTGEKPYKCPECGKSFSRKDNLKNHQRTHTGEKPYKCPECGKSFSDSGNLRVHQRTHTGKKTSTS

B1: ZFPc target oligo (dsDNA)
DNA 1: AGTACTAGAGATATAAGTACT
DNA 2: AGTACTTATATCTCTAGTACT
ZFPc
  Kd: 99 nM

B2: ZFPf target oligo (dsDNA)
DNA 1: AGTACTAACAAGACAAGTACT
DNA 2: AGTACTTGTCTTGTTAGTACT
ZFPf
  Kd: 185000 nM

B3: ZFPr target oligo (dsDNA)
DNA 1: AGTACTAGCCCTCAGAGTACT
DNA 2: AGTACTCTGAGGGCTAGTACT
ZFPr
  Kd: 502 nM

B4: ZFPe target oligo (dsDNA)
DNA 1: AGTACTATAATGATTAGTACT
DNA 2: AGTACTAATCATTATAGTACT
ZFPe
  Kd: 67.1 nM

B5: ZFPa target oligo (dsDNA)
DNA 1: AGTACTGCCAAGATAATGATTAAAAGTACT
DNA 2: AGTACTTTTAATCATTATCTTGGCAGTACT
ZFPa
  Kd: 12.3 nM

B6: ZFPb target oligo (dsDNA)
DNA 1: AGTACTATGGCAAACAAAAGTTGAAGTACT
DNA 2: AGTACTTCAACTTTTGTTTGCCATAGTACT
ZFPb
  Kd: 40.2 nM

B7: ZFPn target oligo (dsDNA)
DNA 1: AGTACTTGGTGGAGGCAGGAGGCGAGTACT
DNA 2: AGTACTCGCCTCCTGCCTCCACCAAGTACT
ZFPn
  Kd: 69.4 nM

B8: ZFPt target oligo (dsDNA)
DNA 1: AGTACTAGTATGCCCAGTACT
DNA 2: AGTACTGGGCATACTAGTACT
ZFPt
  Kd: 1070 nM

B9: ZFPq target oligo (dsDNA)
DNA 1: AGTACTAGGCCTCCGAGTACT
DNA 2: AGTACTCGGAGGCCTAGTACT
ZFPq
  Kd: 1290 nM

B10: ZFPu target oligo (dsDNA)
DNA 1: AGTACTCCAGCAAATAGTACT
DNA 2: AGTACTATTTGCTGGAGTACT
ZFPu
  Kd: 2470 nM

B11: ZFPk target oligo (dsDNA)
DNA 1: AGTACTACCAATCGCCAGACAGGAAGTACT
DNA 2: AGTACTTCCTGTCTGGCGATTGGTAGTACT
ZFPk
  Kd: 5.14 nM

B12: ZFPd target oligo (dsDNA)
DNA 1: AGTACTAAAAGCAAAAGTACT
DNA 2: AGTACTTTTGCTTTTAGTACT
ZFPd
  Kd: 0.471 nM
